Laboratory results published in PMC8920935.

Columns and labels:
[1] = biological target: Escherichia coli YidC, cysteine-less, with a cysteine introduced at position 405 (WT in the FRET assay) (Escherichia coli) (UniProt P25714); assay: FRET or BRET; labelled Pf3 coat added in steps (60, 60, 150, 150, 150, 300, 300 nM; final 1.17 uM; 1 min each) to DOPC proteoliposomes with 300 nM labelled YidC; excitation 500 nm, acceptor signal at 669 nm; room temperature
[2] = biological target: Escherichia coli YidC R366E/F433S, cysteine-less, with a cysteine introduced at position 405 (Escherichia coli) (UniProt P25714); assay: as above

Kd [1]: 0.241 µM
Kd [2]: 0.349 µM
Substance: Pf3 coat protein, fluorescently labelled at residue 48 (from UniProt P03623 1-44) (natural protein)
